Legend:
[1] = biological target: IL1RL1 with the extracellular risk allele (rs1041973 [C]) and the TIR signalling domain risk haplotype (rs10192157 [C]) (human) (UniProt Q01638)
[2] = biological target: IL1RL1 with the extracellular risk allele (rs1041973 [C]) and the protective TIR signalling domain haplotype (rs10192157 [T]) (human) (UniProt Q01638)
[3] = biological target: IL1RL1 with the extracellular risk allele (rs1041973 [C]) and the TIR signalling domain risk haplotype (rs10192157 [C]) (human) (UniProt Q01638); remark: listed apart in the source

Molecule	IL8 EC50 (IL8 ELISA of supernatant, transfected HEK293, risk:risk haplotype) [1]	IL8 in supernatant (ELISA) of HEK293 reporter cells transfected with IL1RL1, IL33 0.0001-50 ng/mL, 24 h; IL8 ELISA maximum [1]	SEAP EC50 Risk:Risk (NF-κB SEAP reporter, transfected HEK293) [1]	SEAP activity (NF-κB reporter) in supernatant of HEK293 reporter cells transfected with IL1RL1, IL33 0.0001-50 ng/mL, 24 h; SEAP maximum (OD) [1]	SEAP EC50 Risk:Prot (NF-κB SEAP reporter, transfected HEK293) [2]	IL8 in supernatant (ELISA) of HEK293 reporter cells transfected with IL1RL1; maximum as told in the text (differs from the table's cell) [3]
IL33 Exon 3,4 deletion variant (IL33_(Δ3,4)) (ligand)	1500 pM	28.1 pg/µL	22.1 pM	2.47 OD	46.6 pM	28.1 pg/mL
IL33_(95–270) (ligand) AFGISGVQKYTRALHDSSITGISPITEYLASLSTYNDQSITFALEDESYEIYVEDLKKDEKKDKVLLSYYESQHPSNESGDGVDGKMLMVTLSPTKDFWLHANNKEHSVELHKCEKPLPDQAFFVLHNMHSNCVSFECKTDPGVFIGVKDNHLALIKVDSSENLCTENILFKLSET	0.74 pM	49.7 pg/µL	6.99 pM	3.79 OD	42.7 pM	–
IL33_(109–270) (ligand) HDSSITGISPITEYLASLSTYNDQSITFALEDESYEIYVEDLKKDEKKDKVLLSYYESQHPSNESGDGVDGKMLMVTLSPTKDFWLHANNKEHSVELHKCEKPLPDQAFFVLHNMHSNCVSFECKTDPGVFIGVKDNHLALIKVDSSENLCTENILFKLSET	1.17 pM	24.6 pg/µL	14.7 pM	3.07 OD	71.2 pM	–
IL33_(113–270) (ligand) ITGISPITEYLASLSTYNDQSITFALEDESYEIYVEDLKKDEKKDKVLLSYYESQHPSNESGDGVDGKMLMVTLSPTKDFWLHANNKEHSVELHKCEKPLPDQAFFVLHNMHSNCVSFECKTDPGVFIGVKDNHLALIKVDSSENLCTENILFKLSET	1580 pM	37.8 pg/µL	13.5 pM	2.6 OD	188 pM	–
IL33_(112–270) (ABNOVA) (ligand) SITGISPITEYLASLSTYNDQSITFALEDESYEIYVEDLKKDEKKDKVLLSYYESQHPSNESGDGVDGKMLMVTLSPTKDFWLHANNKEHSVELHKCEKPLPDQAFFVLHNMHSNCVSFECKTDPGVFIGVKDNHLALIKVDSSENLCTENILFKLSET	69.8 pM	24.6 pg/µL	46.2 pM	3.28 OD	200 pM	–
IL33_(99–270) (ligand) SGVQKYTRALHDSSITGISPITEYLASLSTYNDQSITFALEDESYEIYVEDLKKDEKKDKVLLSYYESQHPSNESGDGVDGKMLMVTLSPTKDFWLHANNKEHSVELHKCEKPLPDQAFFVLHNMHSNCVSFECKTDPGVFIGVKDNHLALIKVDSSENLCTENILFKLSET	29000 pM	42.9 pg/µL	29.2 pM	3.58 OD	90.6 pM	–

Reference: publication PMC11629065
